In test [1] the target is T1, human LSR (lipolysis stimulated lipoprotein receptor) (human, UniProt Q86X29 1-649).
T1 construct: Stood on human ovarian cancer cells (RMG-I, OVSAHO, JHOS2, OVISE; endogenous) or on SKOV3-L45 cells made to stably express LSR (construct not described); also called hLSR; human LSR protein (NP_991403.1)
T1 sequence: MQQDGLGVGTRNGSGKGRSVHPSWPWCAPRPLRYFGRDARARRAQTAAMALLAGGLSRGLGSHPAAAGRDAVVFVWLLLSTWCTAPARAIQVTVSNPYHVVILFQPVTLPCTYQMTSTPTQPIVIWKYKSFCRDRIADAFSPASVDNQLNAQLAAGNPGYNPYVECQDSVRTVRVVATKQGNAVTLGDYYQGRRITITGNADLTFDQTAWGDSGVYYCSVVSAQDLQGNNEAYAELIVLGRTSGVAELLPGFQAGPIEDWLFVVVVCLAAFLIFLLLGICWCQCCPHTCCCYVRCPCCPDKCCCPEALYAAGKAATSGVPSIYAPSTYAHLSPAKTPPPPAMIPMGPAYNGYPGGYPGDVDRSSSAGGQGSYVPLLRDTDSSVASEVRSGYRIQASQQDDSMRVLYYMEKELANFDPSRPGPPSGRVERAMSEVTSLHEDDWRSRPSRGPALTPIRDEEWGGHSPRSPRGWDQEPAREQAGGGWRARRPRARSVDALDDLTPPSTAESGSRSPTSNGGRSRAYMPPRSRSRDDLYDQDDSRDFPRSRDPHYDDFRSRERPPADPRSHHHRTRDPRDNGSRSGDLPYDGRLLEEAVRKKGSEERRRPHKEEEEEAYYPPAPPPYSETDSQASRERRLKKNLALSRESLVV
In words: FACS on RMG-I cells stained with various antibody concentrations, goat anti-mouse IgG-FITC, fit in GraphPad Prism. On the procedure: Then, using an anti-LSR antibody (#1-25 or #9-7), immunohistochemical staining for LSR was carried out according to the ABC method. In the ovary serous adenocarcinoma tissue and the endometrial cancer tissue, LSR was highly expressed at the tumor sites. Immunohistochemical Staining Using Normal Frozen Tissue Array FDA standard human tissue microarrays (T6234701-2, Biochain) were immunohistochemically stained using the anti-LSR antibody #1-25. […] Calculation of Binding Constant Various concentration of various anti-LSR antibodies were reacted with RMG-I cells and they were stained using goat anti-mouse IgG-FITC (Southern Biotech, Birmingham, Ala., USA) and analyzed by a FACSCanto® II cytometer (Becton Dickinson). With regard to the fluorescence intensity of FITC, a KD value was analyzed using GraphPad Prism® Software Version 6.0 for Windows (GraphPad Software Inc., San Diego, Calif., USA). When the binding ability of the made LSR antibodies was analyzed by FACS®, antibodies having a high binding ability were obtained. The following analysis was carried out using two kinds of clones having the highest binding ability in them (FIG. 37B). […] Cell Cycle Analysis Ovarian clear cell adenocarcinoma (RMG-I) was seeded into a 6-well plate at 15,000 cells/well and incubated in a CO_2 incubator at 37° C. overnight. The culture supernatant was discarded and 100 µg/ml anti-LSR antibody or mouse IgG2a diluted with RPMI 1640 medium (containing 1% FBS and 1% penicillin-streptomycin) was added at 2 mL/well for each. After 96 hours, cell cycle analysis was carried out using the Cycle Test Plus® DNA Reagent kits (BD Biosciences). Western Blot Ovarian clear cell adenocarcinoma (RMG-I) was seeded into a 6-well plate at 15,000 cells/well and incubated in a CO_2 incubator at 37° C. overnight. The culture supernatant was discarded and 100 µg/ml anti-LSR antibody or mouse IgG2a diluted with RPMI 1640 medium (containing 1% FBS and 1% penicillin-streptomycin) was added at 2 mL/well for each.

The target in test [2] is T2, human LSR with a V5/His tag fused to the C-terminal, on the LSR-expressing cell strain (human, UniProt Q86X29 1-649).
T2 construct: In panning Lot 1 a mammalian LSR-expressing cell strain was used whose construct is not described; also called human LSR-expressing chicken cell strain; not shown: V5/His tag of vector pcDNA3.1-V5/His-TOPO
T2 sequence: T1 sequence
As to the kind of experiment: cell panning of the scFv phage library on the LSR-expressing cell strain, reactivity confirmed by FACS, positive phage clones selected. On the procedure: The scFv phage antibody library was added to a non-LSR-expressing cell strain to carry out absorption operation of nonspecific phages, and then was reacted with a LSR-expressing cell strain. In Lot 1, a mammalian cell strain was used and in Lot 2, cell panning was carried out using the chicken lymphoblast-like cell strain used for immunization. After washing with organic solvent, phages specifically binding to the LSR-expressing cell strain were recovered and then *Escherichia coli* were infected with it. Panning was carried out four times and then the reactivity of the library was confirmed by FACS analysis using the LSR-expressing cell strain. Phages from a library of which the reactivity had most increased were cloned, positive clones were selected, and then the sequences of six types of clones were determined (SEQ ID NOs: 1 to 6 and FIG. 9). For cell panning, a method described in "Giordano et al., Nat Med. 2001 November; 7(11): 1249-53" was followed.

Substitutions are numbered along the chain they refer to.

B1: anti-LSR mouse/chicken chimeric monoclonal antibody #9-7 (antibody, V domains shown)
VH: AVTLDESGGGLQTPGGALSLVCKASGFTFSDYQMNWVRQAPSKGLEWVAGINGRSSWTDYGAAVKGRATISRDNGQSTVRLQLNNLRAEDTATYYCARGSSIDAWGHGTEVIVST
VL: ALTQPASVSANPGETVKITCSGGGSYYGSYYYGWYQQKSPGSAPVTMIYNNNNRPSNIPSRFSGSLSGSTNTLTITGVQADEAVYYCGSIDSNIAGVFGAGTTLTV
notes: also called anti-LSR antibody 9-7
As for B1, the equilibrium dissociation constant (Kd) in test [1] was determined as 2.52 nM.

B2: anti-LSR mouse/chicken chimeric monoclonal antibody #26-2 (antibody, V domains shown)
VH: AVTLDESGGGLQTPGGGLSLVCKGSGFTFSNYEMQWVRQAPGKGLEWVAGISGAGSTTRYGSAVQGRATISRDNGQSTVRLQLNNLRAEDTGTYYCARGSNIDGWGHGTEVIVST
VL: ALTQPSSVSANPGETVKITCSGGGRYAESYYYSWFQQKSPGSAPVTVIYWNDKRPSNIPSRFSGSLSGSTNTLTITGVRAEDEAVYYCGAYEDSSAGFGAGTTLTV
notes: also called No. 26-2; anti-LSR antibody 26-2
For B2, the Kd in test [1] stood at 4.04 nM. This Kd is about 1.6-fold higher than that of the molecule before.

B3: SEQ ID NO 4 (scFv phage antibody clone, anti-LSR antibody 27-6 sequence) (scFv)
scFv: AVTLDESGGGLQMPGGALSLVCRASGFDFSSYEMQWIRQAPGKGLEWVAGISGAGSGTRYGSAVKGRATISRDNGQSTVRLQLNNLRAEDTGIYFCARSSNIDAWGHGTEVTVSTGGGGSGGGGSGGGGSDVALTQPASVSANLGGTVKITCSGGGRYAESYYYGWYQQKSPGSTPVTVIYWNDKRPSNIPSRFSGSLSGSTNTLTITGVQVEDEAVYFCGSYEDSRSAFGAGTTLTV
notes: the phage coat protein fusion is not described; also called 27-6 scFv
With B3, the binding result in test [2] was “binds”.

B4: anti-LSR mouse/chicken chimeric monoclonal antibody #1-25 (antibody, V domains shown)
VH: AVTLDESGGGLQTPGGALSLVCKASGFDFSSYEMQWVRQAPGKGLEWVTGISGSGSSTRYGSAVKGRATISRDNGQSTVRLQLNNLRAEDTGTYYCARGSTIDAWGHGTEVTVST
VL: ALTQPASVSANPGETVKITCSGGSSYAGSYYYGWYQQKSPGSAPVTVIYYNDQRPSDIPSRFSGSTSGSTATLTITGVQVEDEAVYICGTYEDSGGVFGAGTTLTV
notes: also called No. 1-25; anti-LSR antibody 1-25
In the case of B4, in test [1], the affinity, expressed as Kd, was 2.03 nM. That is a single-digit nanomolar value.

B5: anti-LSR mouse/chicken chimeric monoclonal antibody #1-43 (antibody, V domains shown)
VH: B4 VH with K23E, Y32H, T49A, S54A, K65Q, T101L, T112I
VL: ALTQPASVSANPGETVKITCSGGGSYYGSYYYSWHQQKSPGSAPVTVIYENNQRPSDIPSRFSGSKSGSTATLTITGVQAEDEAVYFCGSYDSSAGLFGAGTTLTV
notes: also called No. 1-43; anti-LSR antibody 1-43
Regarding B5, the equilibrium dissociation constant (Kd) in test [1] turned out to be 24.6 nM.

B6: anti-LSR mouse/chicken chimeric monoclonal antibody #27-6 (antibody, V domains shown)
VH: B4 VH with T13M, K23R, V37I, T49A, S54A, S57G, T93I, Y95F, G99S, T101N
VL: ALTQPASVSANLGGTVKITCSGGGRYAESYYYGWYQQKSPGSTPVTVIYWNDKRPSNIPSRFSGSLSGSTNTLTITGVQVEDEAVYFCGSYEDSRSAFGAGTTLTV
notes: also called No. 27-6; anti-LSR antibody 27-6
In test [1], B6 returned a Kd of 4.29 nM.

B7: SEQ ID NO 5 (scFv phage antibody clone, anti-LSR antibody 1-25 sequence) (scFv)
scFv: AVTLDESGGGLQTPGGALSLVCKASGFDFSSYEMQWVRQAPGKGLEWVTGISGSGSSTRYGSAVKGRATISRDNGQSTVRLQLNNLRAEDTGTYYCARGSTIDAWGHGTEVTVSTGGGGSGGGGSGGGGSDVALTQPASVSANPGETVKITCSGGSSYAGSYYYGWYQQKSPGSAPVTVIYYNDQRPSDIPSRFSGSTSGSTATLTITGVQVEDEAVYICGTYEDSGGVFGAGTTLTV
notes: the phage coat protein fusion is not described; also called 1-25 scFv
For the molecule B7, the binding result in test [2] is reported as “binds”.

B8: SEQ ID NO 6 (scFv phage antibody clone, anti-LSR antibody 1-43 sequence) (scFv)
scFv: AVTLDESGGGLQTPGGALSLVCEASGFDFSSHEMQWVRQAPGKGLEWVAGISGAGSSTRYGSAVQGRATISRDNGQSTVRLQLNNLRAEDTGTYYCARGSLIDAWGHGTEVIVSTGGGGSGGGGSGGGGSDVALTQPASVSANPGETVKITCSGGGSYYGSYYYSWHQQKSPGSAPVTVIYENNQRPSDIPSRFSGSKSGSTATLTITGVQAEDEAVYFCGSYDSSAGLFGAGTTLTV
notes: the phage coat protein fusion is not described; also called 1-43 scFv
For the molecule B8, the binding result in test [2] is “binds”.

B9: SEQ ID NO 3 (scFv phage antibody clone, anti-LSR antibody 26-2 sequence) (scFv)
scFv: AVTLDESGGGLQTPGGGLSLVCKGSGFTFSNYEMQWVRQAPGKGLEWVAGISGAGSTTRYGSAVQGRATISRDNGQSTVRLQLNNLRAEDTGTYYCARGSNIDGWGHGTEVIVSTGGGGSGGGGSGGGGSDVALTQPSSVSANPGETVKITCSGGGRYAESYYYSWFQQKSPGSAPVTVIYWNDKRPSNIPSRFSGSLSGSTNTLTITGVRAEDEAVYYCGAYEDSSAGFGAGTTLTV
notes: the phage coat protein fusion is not described; also called 26-2 scFv
As to B9, the binding result in test [2] is given as “binds”.

These data come from US10174111 (NATIONAL UNIVERSITY CORPORATION KOCHI UNIVERSITY, dated 2019).
